Source: patent publication US20160031999A1 (CSL, published 2016)
Where a chain is given by its changes, count along the chain named. “And” between values parts separate entries of the source, which are not always exact repeats. Equal values may be shown once.

B1: antibody 8D10 (antibody, human IgG4 S228P, kappa, V domains shown)
VH: EVQLLESGGGLVQPGGSLRLSCAASGFTFSRYMMGWVRQAPGKGLEWVSSIVPSGGITIYADSVKGRFTISRDNSKNTLYLQMNSLRAEDTAVYYCARDHMGIVATDWGQGTLVTVSS
VL: DIQMTQSPSSLSASVGDRVTITCQASQDITNYLNWYLHKPGKAPKLLIYDASNLQTGVPSRFSGSGSGTDFTFTITSLQPEDFGTYYCQQYDTLHPSFGPGTTVDIKR
B2: antibody 8E4 (antibody, human IgG4 S228P, lambda, V domains shown)
VH: EVQLLESGGGLVQPGGSLRLSCAASGFTFSWYFMGWVRQAPGKGLEWVSYIYPSGGSTGYADSVKGRFTISRDNSKNTLYLQMHSLRAEDTAVYYCARDEGYCSSTSCYFDAFDIWGQGTMVTVSS
VL: QSALTQPPSASGSPGQSVAISCTGTSSDVGGYNFVSWYQQHPGKAPKLLIYEVTKRPSGVPDRFSGSKAGNTASLTVSGLQAEDEADYYCSSYGGSNNAGVFGTGTKVTVLG

How the values were obtained:
[1] = target: T1, polypeptide of SEQ ID NO: 87 (human IL-11Rα 23-215 and mouse IL-11Rα 216-367, 8×HIS tag) (human and mouse (chimera)); test: Biacore, domain-swapped receptor; strong = KD of about 10 nM or lower
T1 chain: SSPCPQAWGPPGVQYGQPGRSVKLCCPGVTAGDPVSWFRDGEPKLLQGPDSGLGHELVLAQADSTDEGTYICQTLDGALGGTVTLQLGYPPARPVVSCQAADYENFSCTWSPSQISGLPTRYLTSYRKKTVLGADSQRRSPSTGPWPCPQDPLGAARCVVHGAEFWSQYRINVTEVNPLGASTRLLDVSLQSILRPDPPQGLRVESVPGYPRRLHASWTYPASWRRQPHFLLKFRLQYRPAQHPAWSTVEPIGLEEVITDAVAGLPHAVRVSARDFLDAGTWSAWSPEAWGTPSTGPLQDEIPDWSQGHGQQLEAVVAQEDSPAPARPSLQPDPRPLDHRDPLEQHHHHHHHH
Experimental: (§1) Various soluble forms of IL-11R comprising regions of hIL-11R and mIL-11R were produced and comprise sequences as set forth in SEQ ID NOs: 3 and 86-90 and the binding of antibodies 8E2, 8D10 and 8E4 to those polypeptides was determined using Western blotting or Biacore analysis.
(§2) For Biacore analysis, anti-human was IgG immobilized on the sensor surface at ˜10,000-12,000 RU and each antibody was captured at between 0.2 μg/ml and 0.5 μg/ml every cycle for 120 seconds. IL-11 receptors were injected over captured antibodies at varying concentrations, ranging from 1 μM down to 2.5 nM, including injections of buffer blanks. Association was monitored for 3-5 minutes, dissociation was monitored for 3-10 minutes. Approximate affinities were determined by fitting binding curves of each interaction to a 1:1 Kinetic Model.

[2] = target: T2, polypeptide of SEQ ID NO: 88 (human IL-11Rα 23-318 and mouse IL-11Rα 319-367, 8×HIS tag) (human and mouse (chimera)); test: as above
T2 chain: T1 chain with H215R, R225P, R226S, I252A, A284T
Experimental: as §1, §2

[3] = target: T3, polypeptide of SEQ ID NO: 85 (amino acids 23 to 318 of human IL-11Rα, serine at position 248, 8×HIS tag) (human, UniProt Q14626 23-318); test: Biacore, antibody captured on anti-human IgG Fc, receptor injected; mean ± SE
T3 construct: also called WT D1/2; truncated hIL-11R
T3 sequence: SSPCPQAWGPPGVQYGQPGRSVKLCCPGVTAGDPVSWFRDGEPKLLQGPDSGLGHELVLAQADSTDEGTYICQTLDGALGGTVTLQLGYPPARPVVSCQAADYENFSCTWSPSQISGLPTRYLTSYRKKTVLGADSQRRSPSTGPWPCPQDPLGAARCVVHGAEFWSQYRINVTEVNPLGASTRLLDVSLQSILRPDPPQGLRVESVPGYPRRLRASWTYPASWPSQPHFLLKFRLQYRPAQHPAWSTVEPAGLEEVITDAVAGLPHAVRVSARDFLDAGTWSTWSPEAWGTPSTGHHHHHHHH
Experimental: (§3) Various point mutants of soluble forms of IL-11R were produced in which amino acids from mIL-11 were introduced into a soluble form of hIL-11 (SEQ ID NO: 85) (see Table 5 for positions of mutations relative to SEQ ID NO: 1 and for reference to the SEQ ID NO: of each polypeptide) and the binding of antibodies to those polypeptides or to polypeptides of SEQ ID NO: 3 or SEQ ID NO: 85 was determined using Biacore analysis or FACS.
(§4) Anti human IgG Fc specific antibody was chemically immobilized on a CM5 chip to ˜9000 RU. Antibodies were captured at about 0.3-1 μg/ml for 120 seconds on 2 spots in each flow cell. Adjacent spots consisting of only anti human IgG were used as a reference. IL-11 receptors were injected over the captured antibodies and reference spots at 40, 10, 5 and 2.5 nM in duplicate. Blank injections of buffer only were also performed in duplicate. Injection was performed for 3 minutes and dissociation monitored for a further 5 minutes.

[4] = target: T4, polypeptide of SEQ ID NO: 3 (amino acids 23 to 363 of human IL-11Rα, serine at position 248, 8×HIS tag) (human, UniProt Q14626 23-363); test: Biacore, antibody captured on anti-human IgG Fc, receptor injected; mean ± SE, N = 3
T4 construct: also called WT F/L
T4 sequence: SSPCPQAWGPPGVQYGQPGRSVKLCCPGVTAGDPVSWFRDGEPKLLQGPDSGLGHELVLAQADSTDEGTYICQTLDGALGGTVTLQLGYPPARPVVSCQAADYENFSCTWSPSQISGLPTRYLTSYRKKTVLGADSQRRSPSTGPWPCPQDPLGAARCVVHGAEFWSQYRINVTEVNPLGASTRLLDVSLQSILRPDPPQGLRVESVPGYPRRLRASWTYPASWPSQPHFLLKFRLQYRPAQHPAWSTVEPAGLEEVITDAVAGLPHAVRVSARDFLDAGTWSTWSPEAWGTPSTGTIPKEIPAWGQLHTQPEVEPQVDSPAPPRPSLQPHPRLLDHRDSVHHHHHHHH
Experimental: as §3, §4

[5] = target: T3, polypeptide of SEQ ID NO: 85 (amino …); test: Biacore, antibody captured on anti-human IgG Fc, receptor injected; N = 2, both values shown
Experimental: as §3, §4

binding result [1]	binding result [2]	Kd [3] [nM]	Kd [4] [nM]	Kd [5]	Binder
binds	binds	0.58	1	0.57 nM and 0.69 nM	B1
binds	binds	2.78	4	3.2 nM and 3.7 nM	B2
